These results are taken from article PMC3203581.

Data set [1] addresses T1, tvMyb2 40-156 (Trichomonas vaginalis, UniProt Q58HP3 40-156).
T1 sequence: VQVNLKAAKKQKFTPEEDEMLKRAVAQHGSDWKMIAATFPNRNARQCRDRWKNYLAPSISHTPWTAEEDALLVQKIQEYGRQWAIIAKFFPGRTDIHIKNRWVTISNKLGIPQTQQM
Put plainly: X-ray crystallography.

In data set [2] the target is T1, tvMyb2 40-156. Briefly: X-ray crystallography. This is another data set of the same source.

Like-named read-outs stand apart in the source and are kept apart here.

B1: MRE-2-13 (dsDNA)
DNA 1: CTGTATCGTCTTG
DNA 2: CAAGACGATACAG
B1: in data set [1], the binding result is “binds”.

B2: MRE-1-12 (dsDNA)
DNA 1: ATAACGATATTT
DNA 2: AAATATCGTTAT
B2: the binding result in data set [2] is on record as “binds”.
